Measurements: US9957297B2, “Template-fixed peptidomimetics as inhibitors of FPR1” (POLYPHOR AG, priority 2011, dated 2018)
Bridges are numbered along the chain shown (N, C = ends). [ ]: non-standard residue; d: D form.

T1: Formyl-Peptide Receptor 1 (UniProt P21462 1-350, limits assumed)
T1 sequence (looked up): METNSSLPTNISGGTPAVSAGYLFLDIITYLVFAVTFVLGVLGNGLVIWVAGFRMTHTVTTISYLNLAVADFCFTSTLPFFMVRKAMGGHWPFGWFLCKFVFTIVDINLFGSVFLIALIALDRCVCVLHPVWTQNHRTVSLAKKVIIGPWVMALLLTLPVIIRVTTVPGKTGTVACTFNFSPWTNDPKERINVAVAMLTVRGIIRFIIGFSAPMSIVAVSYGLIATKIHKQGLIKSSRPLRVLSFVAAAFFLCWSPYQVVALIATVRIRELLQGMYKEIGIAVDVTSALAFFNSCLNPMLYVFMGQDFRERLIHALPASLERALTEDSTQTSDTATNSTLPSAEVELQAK

B1: cyclo(-Tyr-His-Lys-Cys-His-Gly-^DPro-Trp-Thr-Ile-Cys-Tyr-Glu-Lys-^DPro-Glu-) (peptide)
peptide: cyclo(YHKCHG[dP]WTICYEK[dP]E)
modifications: disulfide 4-11
SMILES: CC[C@H](C)[C@@H]1NC(=O)[C@H]([C@@H](C)O)NC(=O)[C@H](Cc2c[nH]c3ccccc23)NC(=O)[C@H]2CCCN2C(=O)CNC(=O)[C@H](Cc2c[nH]cn2)NC(=O)[C@@H]2CSSC[C@H](NC1=O)C(=O)N[C@@H](Cc1ccc(O)cc1)C(=O)N[C@@H](CCC(=O)O)C(=O)N[C@@H](CCCCN)C(=O)N1CCC[C@@H]1C(=O)N[C@@H](CCC(=O)O)C(=O)N[C@@H](Cc1ccc(O)cc1)C(=O)N[C@@H](Cc1c[nH]cn1)C(=O)N[C@@H](CCCCN)C(=O)N2
B2: cyclo(-Lys-His-Ala-Cys-His-Gly-^DPro-Trp-Thr-Ile-Cys-Tyr-Gln-Lys-^DPro-Pro-) (peptide)
peptide: cyclo(KHACHG[dP]WTICYQK[dP]P)
modifications: disulfide 4-11
SMILES: CC[C@H](C)[C@@H]1NC(=O)[C@H]([C@@H](C)O)NC(=O)[C@H](Cc2c[nH]c3ccccc23)NC(=O)[C@H]2CCCN2C(=O)CNC(=O)[C@H](Cc2c[nH]cn2)NC(=O)[C@@H]2CSSC[C@H](NC1=O)C(=O)N[C@@H](Cc1ccc(O)cc1)C(=O)N[C@@H](CCC(N)=O)C(=O)N[C@@H](CCCCN)C(=O)N1CCC[C@@H]1C(=O)N1CCC[C@H]1C(=O)N[C@@H](CCCCN)C(=O)N[C@@H](Cc1c[nH]cn1)C(=O)N[C@@H](C)C(=O)N2
B3: cyclo(-Tyr-His-Ala-Cys-His-Gly-^DPro-Trp-Thr-Ile-Cys-Tyr-Thr-Lys-^DPro-Pro-) (peptide)
peptide: cyclo(YHACHG[dP]WTICYTK[dP]P)
modifications: disulfide 4-11
SMILES: CC[C@H](C)[C@@H]1NC(=O)[C@H]([C@@H](C)O)NC(=O)[C@H](Cc2c[nH]c3ccccc23)NC(=O)[C@H]2CCCN2C(=O)CNC(=O)[C@H](Cc2c[nH]cn2)NC(=O)[C@@H]2CSSC[C@H](NC1=O)C(=O)N[C@@H](Cc1ccc(O)cc1)C(=O)N[C@@H]([C@@H](C)O)C(=O)N[C@@H](CCCCN)C(=O)N1CCC[C@@H]1C(=O)N1CCC[C@H]1C(=O)N[C@@H](Cc1ccc(O)cc1)C(=O)N[C@@H](Cc1c[nH]cn1)C(=O)N[C@@H](C)C(=O)N2
B4: cyclo(-Tyr-His-Ala-Cys-Trp-Gly-^DPro-Trp-Thr-Ile-Cys-Tyr-Thr-Lys-^DPro-Pro-) (peptide)
peptide: cyclo(YHACWG[dP]WTICYTK[dP]P)
modifications: disulfide 4-11
SMILES: CC[C@H](C)[C@@H]1NC(=O)[C@H]([C@@H](C)O)NC(=O)[C@H](Cc2c[nH]c3ccccc23)NC(=O)[C@H]2CCCN2C(=O)CNC(=O)[C@H](Cc2c[nH]c3ccccc23)NC(=O)[C@@H]2CSSC[C@H](NC1=O)C(=O)N[C@@H](Cc1ccc(O)cc1)C(=O)N[C@@H]([C@@H](C)O)C(=O)N[C@@H](CCCCN)C(=O)N1CCC[C@@H]1C(=O)N1CCC[C@H]1C(=O)N[C@@H](Cc1ccc(O)cc1)C(=O)N[C@@H](Cc1c[nH]cn1)C(=O)N[C@@H](C)C(=O)N2
B5: cyclo(-His-Tyr-Ala-Cys-Trp-Gly-^DPro-Trp-Thr-Ile-Cys-Tyr-Gln-Lys-^DPro-Pro-) (peptide)
peptide: cyclo(HYACWG[dP]WTICYQK[dP]P)
modifications: disulfide 4-11
SMILES: CC[C@H](C)[C@@H]1NC(=O)[C@H]([C@@H](C)O)NC(=O)[C@H](Cc2c[nH]c3ccccc23)NC(=O)[C@H]2CCCN2C(=O)CNC(=O)[C@H](Cc2c[nH]c3ccccc23)NC(=O)[C@@H]2CSSC[C@H](NC1=O)C(=O)N[C@@H](Cc1ccc(O)cc1)C(=O)N[C@@H](CCC(N)=O)C(=O)N[C@@H](CCCCN)C(=O)N1CCC[C@@H]1C(=O)N1CCC[C@H]1C(=O)N[C@@H](Cc1c[nH]cn1)C(=O)N[C@@H](Cc1ccc(O)cc1)C(=O)N[C@@H](C)C(=O)N2
B6: cyclo(-Ala-His-Ala-Cys-Trp-Gly-^DPro-Trp-Thr-Ile-Cys-Tyr-Gln-Lys-^DPro-Pro-) (peptide)
peptide: cyclo(AHACWG[dP]WTICYQK[dP]P)
modifications: disulfide 4-11
SMILES: CC[C@H](C)[C@@H]1NC(=O)[C@H]([C@@H](C)O)NC(=O)[C@H](Cc2c[nH]c3ccccc23)NC(=O)[C@H]2CCCN2C(=O)CNC(=O)[C@H](Cc2c[nH]c3ccccc23)NC(=O)[C@@H]2CSSC[C@H](NC1=O)C(=O)N[C@@H](Cc1ccc(O)cc1)C(=O)N[C@@H](CCC(N)=O)C(=O)N[C@@H](CCCCN)C(=O)N1CCC[C@@H]1C(=O)N1CCC[C@H]1C(=O)N[C@@H](C)C(=O)N[C@@H](Cc1c[nH]cn1)C(=O)N[C@@H](C)C(=O)N2
B7: cyclo(-Tyr-His-Ala-Cys-His-Gly-^DPro-Trp-Thr-Ile-Cys-Tyr-Glu-Lys-^DPro-Pro-) (peptide)
peptide: cyclo(YHACHG[dP]WTICYEK[dP]P)
modifications: disulfide 4-11
SMILES: CC[C@H](C)[C@@H]1NC(=O)[C@H]([C@@H](C)O)NC(=O)[C@H](Cc2c[nH]c3ccccc23)NC(=O)[C@H]2CCCN2C(=O)CNC(=O)[C@H](Cc2c[nH]cn2)NC(=O)[C@@H]2CSSC[C@H](NC1=O)C(=O)N[C@@H](Cc1ccc(O)cc1)C(=O)N[C@@H](CCC(=O)O)C(=O)N[C@@H](CCCCN)C(=O)N1CCC[C@@H]1C(=O)N1CCC[C@H]1C(=O)N[C@@H](Cc1ccc(O)cc1)C(=O)N[C@@H](Cc1c[nH]cn1)C(=O)N[C@@H](C)C(=O)N2
B8: cyclo(-Tyr-His-Ala-Cys-His-Gly-^DPro-Trp-Thr-Ile-Cys-Tyr-Gln-Lys-^DThr-Pro-) (peptide)
peptide: cyclo(YHACHG[dP]WTICYQK[dT]P)
modifications: disulfide 4-11
SMILES: CC[C@H](C)[C@@H]1NC(=O)[C@H]([C@@H](C)O)NC(=O)[C@H](Cc2c[nH]c3ccccc23)NC(=O)[C@H]2CCCN2C(=O)CNC(=O)[C@H](Cc2c[nH]cn2)NC(=O)[C@@H]2CSSC[C@H](NC1=O)C(=O)N[C@@H](Cc1ccc(O)cc1)C(=O)N[C@@H](CCC(N)=O)C(=O)N[C@@H](CCCCN)C(=O)N[C@H]([C@H](C)O)C(=O)N1CCC[C@H]1C(=O)N[C@@H](Cc1ccc(O)cc1)C(=O)N[C@@H](Cc1c[nH]cn1)C(=O)N[C@@H](C)C(=O)N2
B9: cyclo(-Tyr-His-Ala-Cys-Trp-Gly-^DPro-Trp-Thr-Ile-Cys-Tyr-Gln-Lys-^DLys-Pro-) (peptide)
peptide: cyclo(YHACWG[dP]WTICYQK[dK]P)
modifications: disulfide 4-11
SMILES: CC[C@H](C)[C@@H]1NC(=O)[C@H]([C@@H](C)O)NC(=O)[C@H](Cc2c[nH]c3ccccc23)NC(=O)[C@H]2CCCN2C(=O)CNC(=O)[C@H](Cc2c[nH]c3ccccc23)NC(=O)[C@@H]2CSSC[C@H](NC1=O)C(=O)N[C@@H](Cc1ccc(O)cc1)C(=O)N[C@@H](CCC(N)=O)C(=O)N[C@@H](CCCCN)C(=O)N[C@H](CCCCN)C(=O)N1CCC[C@H]1C(=O)N[C@@H](Cc1ccc(O)cc1)C(=O)N[C@@H](Cc1c[nH]cn1)C(=O)N[C@@H](C)C(=O)N2
B10: cyclo(-Tyr-His-Ala-Cys-Trp-Gly-^DAla-Trp-Thr-Ile-Cys-Tyr-Gln-Lys-^DPro-Pro-) (peptide)
peptide: cyclo(YHACWG[dA]WTICYQK[dP]P)
modifications: disulfide 4-11
SMILES: CC[C@H](C)[C@@H]1NC(=O)[C@H]([C@@H](C)O)NC(=O)[C@H](Cc2c[nH]c3ccccc23)NC(=O)[C@@H](C)NC(=O)CNC(=O)[C@H](Cc2c[nH]c3ccccc23)NC(=O)[C@@H]2CSSC[C@H](NC1=O)C(=O)N[C@@H](Cc1ccc(O)cc1)C(=O)N[C@@H](CCC(N)=O)C(=O)N[C@@H](CCCCN)C(=O)N1CCC[C@@H]1C(=O)N1CCC[C@H]1C(=O)N[C@@H](Cc1ccc(O)cc1)C(=O)N[C@@H](Cc1c[nH]cn1)C(=O)N[C@@H](C)C(=O)N2
B11: cyclo(-His-His-Ala-Cys-Trp-Gly-^DPro-Trp-Thr-Ile-Cys-Tyr-Gln-Lys-^DPro-Pro-) (peptide)
peptide: cyclo(HHACWG[dP]WTICYQK[dP]P)
modifications: disulfide 4-11
SMILES: CC[C@H](C)[C@@H]1NC(=O)[C@H]([C@@H](C)O)NC(=O)[C@H](Cc2c[nH]c3ccccc23)NC(=O)[C@H]2CCCN2C(=O)CNC(=O)[C@H](Cc2c[nH]c3ccccc23)NC(=O)[C@@H]2CSSC[C@H](NC1=O)C(=O)N[C@@H](Cc1ccc(O)cc1)C(=O)N[C@@H](CCC(N)=O)C(=O)N[C@@H](CCCCN)C(=O)N1CCC[C@@H]1C(=O)N1CCC[C@H]1C(=O)N[C@@H](Cc1c[nH]cn1)C(=O)N[C@@H](Cc1c[nH]cn1)C(=O)N[C@@H](C)C(=O)N2
B12: cyclo(-Tyr-His-Ala-Cys-Trp-Gly-^DPro-Trp-Thr-Ile-Cys-Tyr-Gln-Lys-^DAla-Pro-) (peptide)
peptide: cyclo(YHACWG[dP]WTICYQK[dA]P)
modifications: disulfide 4-11
SMILES: CC[C@H](C)[C@@H]1NC(=O)[C@H]([C@@H](C)O)NC(=O)[C@H](Cc2c[nH]c3ccccc23)NC(=O)[C@H]2CCCN2C(=O)CNC(=O)[C@H](Cc2c[nH]c3ccccc23)NC(=O)[C@@H]2CSSC[C@H](NC1=O)C(=O)N[C@@H](Cc1ccc(O)cc1)C(=O)N[C@@H](CCC(N)=O)C(=O)N[C@@H](CCCCN)C(=O)N[C@H](C)C(=O)N1CCC[C@H]1C(=O)N[C@@H](Cc1ccc(O)cc1)C(=O)N[C@@H](Cc1c[nH]cn1)C(=O)N[C@@H](C)C(=O)N2
B13: cyclo(-Tyr-His-Ala-Cys-His-Gly-^DAla-Trp-Thr-Ile-Cys-Tyr-Gln-Lys-^DPro-Pro-) (peptide)
peptide: cyclo(YHACHG[dA]WTICYQK[dP]P)
modifications: disulfide 4-11
SMILES: CC[C@H](C)[C@@H]1NC(=O)[C@H]([C@@H](C)O)NC(=O)[C@H](Cc2c[nH]c3ccccc23)NC(=O)[C@@H](C)NC(=O)CNC(=O)[C@H](Cc2c[nH]cn2)NC(=O)[C@@H]2CSSC[C@H](NC1=O)C(=O)N[C@@H](Cc1ccc(O)cc1)C(=O)N[C@@H](CCC(N)=O)C(=O)N[C@@H](CCCCN)C(=O)N1CCC[C@@H]1C(=O)N1CCC[C@H]1C(=O)N[C@@H](Cc1ccc(O)cc1)C(=O)N[C@@H](Cc1c[nH]cn1)C(=O)N[C@@H](C)C(=O)N2
B14: cyclo(-Tyr-His-Ala-Cys-Trp-Gly-^DPro-Trp-Thr-Ile-Cys-Tyr-Ala-Lys-^DPro-Pro-) (peptide)
peptide: cyclo(YHACWG[dP]WTICYAK[dP]P)
modifications: disulfide 4-11
SMILES: CC[C@H](C)[C@@H]1NC(=O)[C@H]([C@@H](C)O)NC(=O)[C@H](Cc2c[nH]c3ccccc23)NC(=O)[C@H]2CCCN2C(=O)CNC(=O)[C@H](Cc2c[nH]c3ccccc23)NC(=O)[C@@H]2CSSC[C@H](NC1=O)C(=O)N[C@@H](Cc1ccc(O)cc1)C(=O)N[C@@H](C)C(=O)N[C@@H](CCCCN)C(=O)N1CCC[C@@H]1C(=O)N1CCC[C@H]1C(=O)N[C@@H](Cc1ccc(O)cc1)C(=O)N[C@@H](Cc1c[nH]cn1)C(=O)N[C@@H](C)C(=O)N2

Target: T1, Formyl-Peptide Receptor 1
Assay: cell-based or functional assay

Binder | β-Arrestin IC50
B1 | 0.169 µM
B2 | 0.59 µM
B3 | 0.598 µM
B4 | 0.202 µM
B5 | 0.735 µM
B6 | 0.404 µM
B7 | 0.189 µM
B8 | 0.641 µM
B9 | 0.195 µM
B10 | 0.213 µM
B11 | 0.342 µM
B12 | 0.133 µM
B13 | 0.458 µM
B14 | 0.278 µM
